Assay results reported in the supplement of paper PMC9170038.

Tested on: MS2 coat protein
Assay: apparent KD of MS2 coat protein; designed switch direction (-1 OFF switch, 1 ON switch): 1; higher = weaker reporter binding
Method in brief: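 Designed RNA switches were transcribed on Illumina chips by stalled E. coli RNA polymerase and titrated with SNAP-549-labelled MS2 coat protein from 0.7 or 1.5 nM, doubling to 3 µM. Step length ran from 0.8–1.5 h at the lowest concentration to 10–20 min at the highest. The apparent KD is the median over clusters for each design, from curve-fitted normalised cluster fluorescence.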

[1] = input ligand: microRNA oligo, concentration not stated
[2] = Eterna round: R95, input ligand: FMN 200 uM
[3] = Eterna round: R95, input ligand: microRNA oligo, concentration not stated
[4] = Eterna round: R95, input ligand: none

| Sequence | apparent KD of MS2 coat protein (input ligand: FMN 200 uM) [nM] | apparent KD of MS2 coat protein [1] [nM] | apparent KD of MS2 coat protein (input ligand: none) [nM] | apparent KD of MS2 coat protein [2] [nM] | apparent KD of MS2 coat protein [3] [nM] | apparent KD of MS2 coat protein [4] [nM] |
| --- | --- | --- | --- | --- | --- | --- |
| ACAUGAGAGUGAGGAUAUACUGUACCUACAUGUGACAUGAGGAUCACCCAUGUGGUAAGUAUGACGUAGAAGGCACAGAUAUGU [Equivalance 79 - Jieux - Same State NG 2] (Eterna round: R96, puzzle: Same State NG 2) | 33.1 | 118 | 182 |  |  |  |
| AUUAUUAAUGCAGGAUAUGAUUAACAUGAGGAUCACCCAUGUGGUGUUGUGAGUAAGGAGAGUGAUCAGAAGGGCAUUUUGUUU [JMF's solution 12] (Eterna round: R96, puzzle: Same State NG 2) | 1130 | 526 | 591 |  |  |  |
| UGUACCUUCACAGGAUAUCAUGCGAAAAUUGCGUGAGAAGGGUGAAUACGGUGUUAAUAAAAGCACAUGAGGAUCACCCAUGUA [SameState NG1 #56] (Eterna round: R96, puzzle: Same State NG 1) | 303 | 246 | 471 |  |  |  |
| AGAAGACAUGAGGAUCACCCAUGUACCUCAUAAGGAGAGAGCGAGGAUAUGUAGAGAGAGAGGGAGCAGAAGGUGUGGGAGGAA [Default title] (Eterna round: R96, puzzle: Same State NG 3) | 283 | 192 | 262 |  |  |  |
| CGUGGGUGGCUGGAGGAUAUUCGAGUGGUAACAUGAGGAUCACCCAUGUGUCGCGCGGUACACGAGGAGAAGGCUGGCGGCCGGC (puzzle: Same State 2) |  |  |  | 34.6 | 109 | 256 |
| UUUAGCGUUACAGGAUAUGGUGAGGAUUACCCACUAGAAGGGUAAACAUGUGCGUCGGACAUGAGGAUCACCCAUGUAGGGCGU (Eterna round: R96, puzzle: Same State NG 1) | 28.4 | 21.6 | 32.4 |  |  |  |
| GUGGUCAGACAUGAGGAUCACCCAUGUGGAAUAAAUAAGGGAUAGGAUAUGGAAUAUAGGAUAUACCAGAAGGGUUGGUUGGUG (Eterna round: R96, puzzle: Same State NG 3) | 107 | 87.6 | 95.1 |  |  |  |
| GCUACCAAAUAAGCCAACAUGAGGAUCACCCAUGUAUGUUGGUAGGAUAUCGUAUGCAAAGCAUACGAGAAGGGCUAAGGUAGC [Mat - Same State NG 3 - JL Mod - D80] (Eterna round: R96, puzzle: Same State NG 3) | 57.1 | 40.4 | 52.5 |  |  |  |
| AGUCCAGCCUGAGCUGGACAAAAGCAUGUACAUGAGGAUCACCCAUGUUCAUGUACAAGCUUUUUGCAAGUCAAAAG [Mat - hsa-mir-208a - Mod of JL - 75] (puzzle: Sensor for hsa-mir-208a) |  |  |  | 337 | 25.6 | 710 |
| AACCGGGAGAAGCAGGAUAUUGCCUCUUCAACAUGAGGAUCACCCAUGUAAGUAAAUUGACGAUACAAGAAGGGCUGCUCCUUAC [Raatgees] (Eterna round: R96, puzzle: Same State 2) |  | 79.1 |  |  |  |  |
| AACAAAUACACAGGAUAUACAGUGGCAACCACUGUAGAAGGGUGGGCGGGUUCCAACAUGAGGAUCACCCAUGUACCCAAUAAC [Atbiladi] (Eterna round: R96, puzzle: Same State NG 1) | 521 | 535 | 882 |  |  |  |
| AAAGGAUGAUGUUACAUGAGGAUCACCCAUGUUGUGAUAACUAAGGAUAUGUGUUUAACUAGUUAAUAGAAGGUAGGAUCAUAA [AK SSNG3-V2-3] (Eterna round: R96, puzzle: Same State NG 3) | 150 | 84.2 | 118 |  |  |  |
| AAUUUCUAGAGAGGAUAUGCAGAGGAUCACCCUGCAGAAGGCUCGAGAGAGAGGAUAUGCAGAGGAUCACCCUGCAGAAGGCUC [pwkr ssNG DX.29] (Eterna round: R96, puzzle: Same State NG 1) | 14.5 | 14.7 | 18.4 |  |  |  |
| GGUAUUGACACAGGAUAUGCUUACGAAACGUAAGCAGAAGGGUGAACAUGAGGAUCACCCAUGUAGGUACCAGGGCGUGAGCCC [JL SSNG1 1.75] (Eterna round: R96, puzzle: Same State NG 1) | 151 | 694 | 1470 |  |  |  |
| UGUUAACAUGAGGAUCACCCAUGUCAAAUGAAUCGAGGAUAUGGAAAGUAAUAAGAUGAACUAGAAGGUGAAGUUG [Altered State 1-19 - Jieux - Same State 1] (puzzle: Same State 1) |  |  |  | 37.1 | 55.7 | 57.3 |
| GCCGCGUUUCGCGCCUACAUGAGGAUCACCCAUGUUUGUAGGCAGGAUAUCGUUUGCUUUGCGGGCGAGAAGGGCUGUUGUGGC [salish99_SSNG3_R04_017] (Eterna round: R96, puzzle: Same State NG 3) | 35 | 28.9 | 38.8 |  |  |  |

| Sequence | apparent KD of MS2 coat protein (input ligand: FMN 200 uM) [nM] | apparent KD of MS2 coat protein [1] [nM] | apparent KD of MS2 coat protein (input ligand: none) [nM] | apparent KD of MS2 coat protein [2] [nM] | apparent KD of MS2 coat protein [3] [nM] | apparent KD of MS2 coat protein [4] [nM] |
| --- | --- | --- | --- | --- | --- | --- |
| GGAAUAUUUACAGGAUAUGUUUUGUUAAGUCGAGCAGAAGGGUAGAUGUCUUACACGGUUUGUUACAUGAGGAUCACCCAUGUC [SameState NG1 #16] (Eterna round: R96, puzzle: Same State NG 1) | 26.4 | 80.3 | 126 |  |  |  |
| AUUUUUAAUGCAGGAUAUGAUUAACAUGAGGAUCACCCAUGUGGUGUUGUGAGUAAGGAGAGUGAUCAGAAGGGCAUUUUUUUA [JMF's solution 89] (Eterna round: R96, puzzle: Same State NG 2) | 1010 | 554 | 585 |  |  |  |
| AGUCCAGCCUGAGCUGGACAAAAGCAUGUACAUGAGGAUCACCCAUGUCAUGUACAAGCUUUUUGCUCGUCAUAAUA [Mat - hsa-mir-208a - Mod of JL - D28] (puzzle: Sensor for hsa-mir-208a) |  |  |  | 653 | 14.9 | 710 |
| GGGAAGAGGGACAAGGAUAUGUCAGGAGAGACAUGAGGAUCACCCAUGUGGAGGUUGGAGCAGAGACAGAAGGUGUACGGAGAGA [JR_SS2_Sub010] (puzzle: Same State 2) |  |  |  | 108 | 118 | 145 |
| CACGUCUAGGUAGGAUAUGAGGUGCCACAGGGAAAAGCCUAUGGACAUGAGGAUCACCCAUGUCCUCAGAAGGGCCAGACGUGA [Inzala] (Eterna round: R96, puzzle: Same State NG 2) | 25.9 | 36.9 | 52.4 |  |  |  |
| AUAAAACAUGAGGAUCACCCAUGUCAAUAAAGUCGAGGAUAUGGGCAAAUAAAAUAAGAACCAGAAGGCGAAUAAU [salish99_ss1_r3_042] (puzzle: Same State 1) |  |  |  | 33.2 | 217 | 206 |
| GCUUCGGCGGUAGGAUAUCUAGGAUAUGGGAAAGACUAAGUCUGUAGGUCACCUAACCCAGAAGGAGAGAAGGACAGGUUCGCC [pwkr ssNG2 2FMN + F9.35] (Eterna round: R96, puzzle: Same State NG 2) | 415 | 1.71 | 1.98 |  |  |  |
| CGGCGUUGUCGAGAGGAUAUGCGGUGAUGGACAUGAGGAUCACCCAUGUUAGCGAUAGCAUUACGGUAGAAGGCUCUACAGCUGC [Soteed Omei mod 7] (puzzle: Same State 2) |  |  |  |  | 42.5 |  |
| UAGUAUCAACGAGGAUAUAAUAUGUUCAAUUUUUUAUAUUGUUUACAUGAGGAUCACCCAUGUUAUUAGAAGGCGUAUGGGAUU [JR_SSNG2_Sub083] (Eterna round: R96, puzzle: Same State NG 2) |  | 47.2 |  |  |  |  |
| AAACACAGCAUAACGCCGUGACAUGAGGAUCACCCAUGUACACAGGAUAUCAUGGCAUAACGCCAUGAGAAGGGUGAUCAAGAC [Raorma] (Eterna round: R96, puzzle: Same State NG 3) | 732 | 77 | 78.8 |  |  |  |
| AUAAAACAUGAGGAUCACCCAUGUCAACAAAGUCGAGGAUAUGGGCAAAUAAAUUAAGAACCAGAAGGCGAAUAAU [salish99_ss1_r3_021] (puzzle: Same State 1) |  |  |  | 36.9 | 236 | 313 |
| CGGGUACAUGAGGAUCACCCAUGUGGGAGAGAUGCAGGAUAUGUGGGAAAAGGGAAUGUAACAGAAGGGCAAGGAG [JR_SS!_Sub015] (puzzle: Same State 1) |  |  |  | 220 | 128 | 124 |
| UAGUAUUAGCGAGGAUAUCGUAUGUUCAAUUUUUUAUAUUGUUUACAUGAGGAUCACCCAUGUUACGAGAAGGCGCAUGGGAUU [JR_SSNG2_Sub081] (Eterna round: R96, puzzle: Same State NG 2) |  | 371 |  |  |  |  |
| AAGAGAGGAAGCGAGGAUAUCGUGGGAGGGACAUGAGGAUCACCCAUGUAGGAUGUUGAGAGGAACGAGAAGGCGCAGGAAAGAA [JR_SS2_Sub074] (puzzle: Same State 2) |  |  |  | 87.4 | 73.3 | 96.1 |
| AGCUAUCGAAAACGAUAGCAAAAGCAUGUACAUGAGGAUCACCCAUGUCAUGUACAAGCUUUUUGCUCGUCUUAAAA [JL zipper 23] (Eterna round: R96, puzzle: Sensor for hsa-mir-208a) | 919 | 14.3 | 1000 |  |  |  |
